Results as given in US20250025549A1.

Experiments:
[1] = target: dipeptidyl peptidase IV (DPP4), the MERS-CoV receptor, His-tagged (human) (UniProt P27487); experiment: ELISA, spike coated, His-tagged hDPP4 titrated
[2] = target: dipeptidyl peptidase IV (DPP4), the MERS-CoV receptor, His-tagged (human) (UniProt P27487)

Chain of dipeptidyl peptidase IV (DPP4), the MERS-CoV receptor, His-tagged (human) (P27487 29-766 limits assumed): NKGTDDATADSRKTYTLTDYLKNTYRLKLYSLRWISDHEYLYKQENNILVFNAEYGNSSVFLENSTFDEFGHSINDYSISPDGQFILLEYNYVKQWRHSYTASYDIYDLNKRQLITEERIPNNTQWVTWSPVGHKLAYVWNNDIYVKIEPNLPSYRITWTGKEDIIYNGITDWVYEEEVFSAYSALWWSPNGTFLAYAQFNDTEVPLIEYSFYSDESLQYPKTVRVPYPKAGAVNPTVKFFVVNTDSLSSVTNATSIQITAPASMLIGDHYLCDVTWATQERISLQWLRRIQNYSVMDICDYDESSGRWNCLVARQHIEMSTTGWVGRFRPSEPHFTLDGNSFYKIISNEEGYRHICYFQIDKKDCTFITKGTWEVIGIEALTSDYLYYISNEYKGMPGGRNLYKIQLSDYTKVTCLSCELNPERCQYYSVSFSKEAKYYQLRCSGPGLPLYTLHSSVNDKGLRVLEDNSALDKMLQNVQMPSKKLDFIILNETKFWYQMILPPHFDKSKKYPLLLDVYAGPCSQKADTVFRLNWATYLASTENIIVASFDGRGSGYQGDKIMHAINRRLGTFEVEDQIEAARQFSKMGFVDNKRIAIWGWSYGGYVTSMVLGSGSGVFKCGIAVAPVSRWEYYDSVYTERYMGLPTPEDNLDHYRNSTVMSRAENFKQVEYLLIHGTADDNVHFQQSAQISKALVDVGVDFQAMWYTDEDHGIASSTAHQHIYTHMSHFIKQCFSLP

Question: “BV2373 CoV S polypeptide (SEQ ID NO: 87) (from UniProt P0DTC2 14-1273) (other; other documents disagree on this pair)” was tested. Which EC50 [1] did it give?
Answer: > 5 µg/mL

Question: What about the IC50 [2] of the same substance?
Answer: > 5 µg/mL
